Biological target: T1, PSMA (Homo sapiens, UniProt Q04609)
T1 construct: the extracellular domains of EGFR, HER2, and PSMA that are immobilized on the surface of CM5 biosensor chips; purchased R&D System, Minneapolis, Minn
Assay: BIAcore surface plasmon resonance on immobilized PSMA
Assay type: binding
Conditions: for binding to the PSMA receptor: PSMA monomer injected at 100 uM
Description: BIAcore 2000 (BIAcore AB, Uppsala, Sweden) was used for surface plasmon resonance (SPR) analysis. Purified extracellular domain of recombinant human EGFR ECD-Fc, HER2 ECD-Fc, and PSMA were diluted in 10 mM sodium acetate pH 5.0 and immobilized on a CM5 sensor chip (GE healthcare) by amine coupling according to the manufacturer's instruction (about 2,500 resonance unit). Various concentrations of monomeric and heptameric targeting ligands were injected onto the flow cell in an HBS-P buffer (10 mM HEPES pH7.4, 150 mM NaCl, and 0.005% surfactant P20) at a flow rate of 20 μl/min or 30 μl/min. The dissociation constants (Kd) were calculated using BIAevaluation software (BIAcore) by fitting data on one to one Langmuir binding model.
The BIAcore 2000 (BIAcore AB, Uppsala, Sweden) was used for surface plasmon resonance analysis. 1 μg of purified extracellular domain of recombinant human EGFR ECD-Fc, HER2 ECD-Fc, or PSMA (R&D System, Minneapolis, Minn.), was diluted in a buffer containing 10 mM sodium acetate pH 5.0 and immobilized on a CM5 sensor chip (GE healthcare, Piscataway, N.J.) by amine coupling according to the manufacturer's instruction (about 2,500 resonance units). Various concentrations of monomeric or heptameric ligands were injected onto the flow cell in an HBS-P buffer (10 mM HEPES pH 7.4, 150 mM NaCl, and 0.005% surfactant P20) at a flow rate of 20 μl/min. The dissociation equilibrium constant (KD), the association rate (Ka) and the dissociation rate (Kd) were calculated using the BIAevaluation software (BIAcore) by fitting the data on a one to one Langmuir binding model.

T1 sequence (Q04609 44-750 limits assumed): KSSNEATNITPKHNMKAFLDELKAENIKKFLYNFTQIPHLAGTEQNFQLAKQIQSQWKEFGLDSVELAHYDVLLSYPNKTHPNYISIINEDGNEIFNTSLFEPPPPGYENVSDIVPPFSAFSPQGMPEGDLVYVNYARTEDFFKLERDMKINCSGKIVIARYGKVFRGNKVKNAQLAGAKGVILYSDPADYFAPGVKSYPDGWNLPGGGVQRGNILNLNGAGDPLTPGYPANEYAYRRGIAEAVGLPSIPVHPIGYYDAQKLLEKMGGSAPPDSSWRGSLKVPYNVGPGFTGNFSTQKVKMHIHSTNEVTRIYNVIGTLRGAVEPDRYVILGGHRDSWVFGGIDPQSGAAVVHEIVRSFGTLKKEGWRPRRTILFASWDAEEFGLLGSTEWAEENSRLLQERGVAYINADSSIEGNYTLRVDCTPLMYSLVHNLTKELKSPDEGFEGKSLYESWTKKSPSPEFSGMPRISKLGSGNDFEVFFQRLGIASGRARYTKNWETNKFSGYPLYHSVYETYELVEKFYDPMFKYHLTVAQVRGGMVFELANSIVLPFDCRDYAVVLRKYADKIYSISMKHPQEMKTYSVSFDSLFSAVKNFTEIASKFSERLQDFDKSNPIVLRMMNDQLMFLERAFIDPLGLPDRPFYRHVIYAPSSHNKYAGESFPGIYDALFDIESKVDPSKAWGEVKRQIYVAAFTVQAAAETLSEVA

Molecule | binding to the PSMA receptor | Kd (dissociation rate, one to one Langmuir model) [s⁻¹]
PSMA-Heptamer: AF-Sm1 heptamerization domain fused with the 12 amino-acid PSMA-binding peptide WQPDTAHHWATL, self-assembled heptamer (protein) MWQPDTAHHWATLGPQPQPKPQPKPEPEPQPQGGMPPRPLDVLNRSLKSPVIVRLKGGREFRGTLDGYDIHMNLVLLDAEEIQNGEVVRKVGSVVIRGDTVVFVSPAPGGEHHHHHH | bind marginally | 1.09e-06
PSMA monomer: PSMA-binding peptide WQPDTAHHWATL on a truncated, nonfunctional Sm1 domain lacking the C-terminal 23 residues (protein) MWQPDTAHHWATLGPQPQPKPQPKPEPEPQPQGGMPPRPLDVLNRSLKSPVIVRLKGGREFRGTLDGYDIHMNLVLLDAEEIQNGEVVHHHHHH | did not bind | –

Reference: patent US9340616B2, “Methods and compositions for heptameric targeting ligands” (The University of North Carolina at Chapel Hill, priority 2011, dated 2016)
